The text below walks through data of PMC10641220, “Pseudomonas aeruginosa AlgF is a protein–protein interaction mediator required for acetylation of the alginate exopolysaccharide” (The Journal of Biological Chemistry, 2023).

The target in experiment [1] is T1, AlgJPp^75-370 (Pseudomonas putida, UniProt Q88ND3 75-370).
T1 construct: AlgJ of Pseudomonas putida, residues 75-370
T1 sequence (looked up): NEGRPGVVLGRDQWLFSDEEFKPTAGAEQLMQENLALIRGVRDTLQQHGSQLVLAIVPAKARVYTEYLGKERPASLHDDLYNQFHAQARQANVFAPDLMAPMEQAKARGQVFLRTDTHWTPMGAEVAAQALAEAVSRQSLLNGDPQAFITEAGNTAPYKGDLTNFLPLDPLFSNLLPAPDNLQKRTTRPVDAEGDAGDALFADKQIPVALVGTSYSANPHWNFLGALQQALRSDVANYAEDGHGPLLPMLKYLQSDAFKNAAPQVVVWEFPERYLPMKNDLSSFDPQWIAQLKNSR
Description: ITC; MicroCal Auto-ITC200, 20 °C, 50 mM Tris pH 7.8, 150 mM NaCl, 2% glycerol, 50 mM arginine, 50 mM glutamic acid; 1.86 mM AlgJ (syringe) into 188 μM AlgF (cell); 4.17 mM AlgF (syringe) into 500 μM AlgX (cell); 2.97 mM AlgJ (syringe) into 170 μM AlgX (cell). The following applies: both partners purified. In general terms: In ITC the heat of successive injections is recorded.

Experiment [2] deals with T2, AlgXPp (Pseudomonas putida KT2440, UniProt Q88ND0 25-479).
T2 construct: AlgX of Pseudomonas putida KT2440, codon-optimized synthetic gene of full-length AlgXPp in pET24b; AlgX is a periplasmic protein
T2 sequence (looked up): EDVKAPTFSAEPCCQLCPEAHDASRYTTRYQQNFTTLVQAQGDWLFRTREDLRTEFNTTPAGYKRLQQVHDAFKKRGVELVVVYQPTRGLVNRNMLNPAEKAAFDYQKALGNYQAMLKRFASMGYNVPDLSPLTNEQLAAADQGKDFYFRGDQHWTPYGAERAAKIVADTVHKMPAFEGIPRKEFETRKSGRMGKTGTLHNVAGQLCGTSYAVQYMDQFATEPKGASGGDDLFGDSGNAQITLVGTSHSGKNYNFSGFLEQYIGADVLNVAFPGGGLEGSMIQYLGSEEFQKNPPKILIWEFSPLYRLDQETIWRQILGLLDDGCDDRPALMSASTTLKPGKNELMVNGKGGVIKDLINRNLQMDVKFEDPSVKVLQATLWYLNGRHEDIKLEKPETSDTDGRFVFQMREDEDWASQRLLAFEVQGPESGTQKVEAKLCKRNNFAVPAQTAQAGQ
The description is as above. The following applies: both partners purified.

B1: AlgFPp^29-215 (domain or fragment, Pseudomonas putida KT2440, UniProt Q88ND4 29-215, looked up)
chain: DAALYGPSAPKGSTFVRLYNATSAPAAASVGNTQIKQVGAQASSDFSFLPGGDYTAQVGGKSVPVKLASDKYYTLVNSNSGSPKLIEEPPFKNKQKALVRVQNLSDQQLTLKTADGKTEVVKPVAANGRGEREINPVKVNLALYQGDKKVGDVKPVALERGEAAVLYVTGSGNALSPVWVTRPVASN
notes: the results text calls the construct 30-215; Cloned in pET28a with a 3' stop codon; also called AlgFPp^30-215; source: E. coli BL21 CodonPlus (λDE3), purified (Ni-NTA, Superdex 200 SEC)
As to B1, the dissociation constant (Kd) (as a rule, the constant that tells how readily two partners part at equilibrium) in experiment [1] is 86 ± 12 µM; in experiment [2], 178 ± 5 µM.
